Earlier results, collected in patent US8901167B2, “Product and process for inhibition of biofilm development” (National Jewish Health, priority 2004, dated 2014).

How the values were obtained:
[1] = test system: extracellular DNA present in the CF airway; conditions: inhalation, CF patients; Fuchs et al. 1994
P. aeruginosa biofilm = conditions: literature refs 39, 43

Molecule	Clinical effect on sputum viscosity and forced expiratory volume (FEV) [1]	Effect on P. aeruginosa biofilm formation (P. aeruginosa biofilm)
rhDNase: purified rhDNase (Pulmozyme; Genentech), digests extracellular DNA present in the CF airway (protein, UniProt P24855 23-282, looked up) Deoxyribonuclease-1: LKIAAFNIQTFGETKMSNATLVSYIVQILSRYDIALVQEVRDSHLTAVGKLLDNLNQDAPDTYHYVVSEPLGRNSYKERYLFVYRPDQVSAVDSYYYDDGCEPCGNDTFNREPAIVRFFSRFTEVREFAIVPLHAAPGDAVAEIDALYDVYLDVQEKWGLEDVMLMGDFNAGCSYVRPSQWSSIRLWTSPTFQWLIPDSADTTATPTHCAYDRIVVAGMLLRGAVVPDSALPFNFQAAYGLSDQLAQAISDHYPVEVMLK	clinically effective for diminishing sputum viscosity and stabilizing the forced expiratory volume	–
lactoferrin: a major component of the secondary neutrophil granules (protein, UniProt P02788 20-710, looked up) Lactotransferrin: GRRRSVQWCAVSQPEATKCFQWQRNMRKVRGPPVSCIKRDSPIQCIQAIAENRADAVTLDGGFIYEAGLAPYKLRPVAAEVYGTERQPRTHYYAVAVVKKGGSFQLNELQGLKSCHTGLRRTAGWNVPIGTLRPFLNWTGPPEPIEAAVARFFSASCVPGADKGQFPNLCRLCAGTGENKCAFSSQEPYFSYSGAFKCLRDGAGDVAFIRESTVFEDLSDEAERDEYELLCPDNTRKPVDKFKDCHLARVPSHAVVARSVNGKEDAIWNLLRQAQEKFGKDKSPKFQLFGSPSGQKDLLFKDSAIGFSRVPPRIDSGLYLGSGYFTAIQNLRKSEEEVAARRARVVWCAVGEQELRKCNQWSGLSEGSVTCSSASTTEDCIALVLKGEADAMSLDGGYVYTAGKCGLVPVLAENYKSQQSSDPDPNCVDRPVEGYLAVAVVRRSDTSLTWNSVKGKKSCHTAVDRTAGWNIPMGLLFNQTGSCKFDEYFSQSCAPGSDPRSNLCALCIGDEQGENKCVPNSNERYYGYTGAFRCLAENAGDVAFVKDVTVLQNTDGNNNEAWAKDLKLADFALLCLDGKRKPVTEARSCHLAMAPNHAVVSRMDKVERLKQVLLHQQAKFGRNGSDCPDKFCLFQSETKNLLFNDNTECLARLHGKTTYEKYLGPQYVAGITNLKKCSTSPLLEACEFLRK	–	prevent P. aeruginosa biofilm development
